The values that follow come from patent publication US20220162304A1 (TUOJIE BIOTECH SHANGHAI, published 2022).

The target in experiment [1] is T1, human CD79B protein on the surface of DoHH2 cells (human, UniProt P40259 29-229).
T1 construct: whole, on cells; endogenous CD79B on a B-cell lymphoma line
T1 sequence (looked up): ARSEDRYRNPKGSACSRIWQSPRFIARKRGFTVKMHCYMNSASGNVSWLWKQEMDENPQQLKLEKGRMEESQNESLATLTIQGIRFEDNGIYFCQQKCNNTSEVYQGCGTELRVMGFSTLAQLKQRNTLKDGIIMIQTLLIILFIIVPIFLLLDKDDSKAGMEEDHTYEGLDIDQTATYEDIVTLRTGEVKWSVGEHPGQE
In words: FACS on DOHH2 cells, serial antibody dilutions, anti-mouse IgG Fc-FITC secondary antibody, MFI. How it is done:
3) FACS detection of anti-human CD79B murine monoclonal antibodies. After centrifugation of the DOHH2 cell suspension, the cells were resuspended in PBS containing 0.1% BSA and counted. 100 μl of antibody diluted to 100 nM (by 1:10) was added and incubated for 1 h at room temperature. After washing the cells for three times, anti-mouse IgG Fc-FITC secondary antibody was added. After 30 min of incubation at room temperature in the dark, the cells were washed for three times and gently resuspended in PBS containing 0.1% BSA for testing on an instrument. Among them, three anti-human CD79B murine monoclonal antibodies had the strongest FACS binding ability, including mAb015, mAb016 and mAb017 (see FIG. 8 for specific data). Among them, hIgG1 was the negative control antibody and SN8 was the positive control antibody. It can be known from the results that in the FACS experiment, the binding ability of the three anti-human CD79B murine monoclonal antibodies mAb015, mAb016 and mAb017 selected preferably by the present disclosure was better than that of SN8.

For experiment [2], the target named is T2, human CD79B antigen (coating antigen of the ELISA, construct not stated) (human, UniProt P40259 29-159).
T2 sequence (looked up): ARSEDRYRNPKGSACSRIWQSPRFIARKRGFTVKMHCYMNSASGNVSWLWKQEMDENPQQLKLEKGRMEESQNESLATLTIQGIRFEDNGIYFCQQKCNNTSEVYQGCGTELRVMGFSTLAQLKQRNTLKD
Briefly: ELISA, plate coated with antigen at 1 ug/mL, serial antibody dilutions, OD450. How it is done: 2) ELISA detection of anti-human CD79B murine monoclonal antibodies. Before the start of the experiment, a 96-well plate was labeled accordingly and coated with an antigen at a concentration of 1 μg/mL, 50 μl per well overnight in a refrigerator at 4° C. The next day, the antigen plate coated the day before was taken out and washed with a plate washer (washing solution: 1×PBST) for once. After washing, the plate was blocked with 1% BSA blocking solution prepared in 1×PBST at 37° C. for 1 h. After washing the plate with 1×PBST washing solution for 3 times, 50 μl of antibody, diluted to 100 nM (by 1:10), were added and incubated in a 37° C. incubator for 1 h. After washing the plate with ×PBST washing solution for 3 times, 100 μl 1:5000 diluted goat-anti-mouse secondary antibody was added and incubated in a 37° C. incubator for 0.5 h. After washing the plate, TMB chromogenic solution A and B were mixed at a 1:1 ratio and then color development was carried out. The development reaction was terminated with 1 N hydrochloric acid after 15 min. The […] at 450 nm were detected on a Spectra Max M5 multi-function plate reader. Among them, three anti-human CD79B murine monoclonal antibodies had the strongest ELISA binding ability, including mAb015, mAb016 and mAb017 (see FIG. 7 for specific data). Among them, hIgG1 was the negative control antibody and SN8 was the positive control antibody. SN8 is the antibody used in the antibody-conjugated drug polatuzumab vedotin developed by Roche Pharmaceuticals (for the sequence, refer to the source of the sequence: US20170362318A). At present, polatuzumab vedotin has been approved by the FDA for marketing. It can be seen from the results that in the ELISA experiment, the binding ability of the three anti-human CD79B murine monoclonal antibodies mAb015, mAb016 and mAb017 selected preferably by the present disclosure was similar to that of SN8.
On the technique in general: An ELISA detects its analyte on a solid surface through an enzyme-linked reagent.

Experiment [3] addresses T1, human CD79B protein on the surface of …. Briefly: FACS, hybridoma culture supernatant on DoHH2 cells. How it is done: 4) FACS screening. DoHH2 cell suspensions were centrifuged and the cells were resuspended in PBS containing 0.1% BSA and counted. The cell supernatant to be tested was added. After 60 min of incubation at room temperature, the cells were washed for three times and then anti-mouse IgG Fc-FITC secondary antibody was added. After 30 min of incubation at room temperature in the dark, the cells were washed for three times and gently resuspended in PBS containing 0.1% BSA for detection on the instrument.
(§1) 5) Identification of positive hybridoma clones. After fusion and subclone screening of mouse spleen cells, we obtained a number of specific antibodies against human CD79B antigen. Among them, 17 hybridomas with the best ELISA and FACS binding ability were used for antibody production and purification. The FACS detection results of the culture supernatant of anti-human CD79B hybridoma positive clone cells are shown in Table 2. mIgG was used as a negative control in both ELISA and FACS tests.

Experiment [4] deals with T2, human CD79B antigen (coating antigen of …). Briefly: ELISA, hybridoma culture supernatant on plate coated with antigen 1 µg/mL. How it is done:
3) ELISA screening. Before the start of the experiment, a 96-well plate was labeled accordingly and coated with an antigen at a concentration of 1 μg/mL, 50 μl per well overnight in a refrigerator at 4° C. The next day, the antigen plate coated the day before was taken out and washed with a plate washer (washing solution: 1×PBST). After washing, the plate was blocked with 1% BSA blocking solution prepared in 1×PBST at 37° C. for 1 h. After washing the plate with 1×PBST washing solution for 3 times, 50 μl of cell supernatant to be tested were added and incubated in a 37° C. incubator for 1 h. After washing the plate with 1×PBST washing solution for 3 times, 100 μl 1:5000 diluted goat-anti-mouse secondary antibody was added and incubated in a 37° C. incubator for 0.5 h. After washing the plate, TMB chromogenic solution A and B were mixed at a 1:1 ratio and then color development was carried out. The development reaction was terminated with 1 N hydrochloric acid after 15 min. The […] at 450 nm were detected on a Spectra Max M5 multi-function plate reader.
as §1

Experiment [5] has as its target T3, fusion protein of human CD79B extracellular domain (ECD) and His tag (human CD79B ECD-His) (human, UniProt P40259 29-159).
T3 construct: also called human CD79B-His; Human CD79B-His protein
T3 sequence: T2 sequence (looked up)
Briefly: SPR (Biacore 8K; by Example 2 human CD79B-His immobilised on CM5 chip, antibody flowed over). On the technique in general: Surface plasmon resonance follows binding to a sensor surface in real time, without labels.

Experiment [6] concerns the target T1, human CD79B protein on the surface of …. In words: FACS on DOHH2 cells, serial antibody dilutions, FITC secondary antibody, MFI.

Residue numbers refer to the chain shown, from its start.

B1: murine hybridoma monoclonal antibody mAb015 (antibody, V domains shown)
VH: QVQLQQSGAELARPGASVKLSCKASGSSFTSYGINWVKQRTGQGLEWIGEIFPRSGNTYYNEKFEGKATLTADKSSSTAYMELRSLTSEDSAVYFCAKGDLGDFDYWGQGTTLTVSS
VL: DFLMTQTPLSLPVRLGDQASISCRSSQSIVHSDGNTYFEWYLQKPGQSPKLLIYKVSNRFSGVPDRFSGSGSGTDFTLKISRVEAEDLGVYYCFQGSHVPWTFGGGTKLEIK
notes: murine monoclonal antibody from hybridoma; also called 83B2G2
In general, EC50 (read off the curve) refers to the concentration needed to bring the measured effect to its halfway point. Read a low EC50 (read off the curve) as an effect from little substance. Turning to B1, the concentration giving a half-maximal response (EC50 (read off the curve)) in experiment [1] is approximately 0.02 µg/mL; in experiment [2], approximately 0.1 nM. The Mean fluorescence values in experiment [3] came out at 10000 mean fluorescence. In experiment [4], the OD450 is 3.41 OD450.

B2: murine hybridoma monoclonal antibody mAb016 (antibody, V domains shown)
VH: QVQLQQSGAELARPGASVKLSCKASGYIFTNYGIIWVKQRTGQGLEWIGDIFPGSGNTYYNENFKGKATLTADKSSSTAYMELRSLTSEDSAVYFCSRGELGDFDYWGQGTTLTVSS
VL: B1 VL with D1V, F2V, R14S, S28N, N35T, F38L, V90I
notes: murine monoclonal antibody from hybridoma; also called 83C2D4
With B2, the entries for the “EC50 (read off the curve)” value in experiment [1] and in experiment [2] were approximately 0.02 µg/mL and approximately 0.1 nM, respectively. For the same molecule, the Mean fluorescence values in experiment [3] was 9990 mean fluorescence. The molecule also came in with an OD450 in experiment [4] of 3.46 OD450.

B3: murine hybridoma monoclonal antibody mAb017 (antibody, V domains shown)
VH: QVQLQQSGAELARPGASVKLSCKASGYTFTTYGINWVKQRTGQGLEWIGEIYPRSGNIYYNEKFKGKATLTADKSSSTAYMELRSLTSEDSAVYFCARGSDYDGDFAYWGQGTLVTVSA
VL: B1 VL with F2V, R14S, S32H, F38L, K108Q
notes: murine monoclonal antibody from hybridoma; also called 86F11F6
B3: the concentration for a half-maximal effect (EC50 (read off the curve)) was approximately 0.02 µg/mL in experiment [1] and approximately 0.1 nM in experiment [2]. In addition, the Mean fluorescence values in experiment [3] came to 8130 mean fluorescence. Further, in experiment [4], the OD450 was 3.8 OD450.

B4: humanized antibody hAb015 (antibody, human IgG1, kappa, V domains shown)
VH: EVQLVQSGAEVKKPGSSVKVSCKASGSSFSSYGINWVKQAPGQGLEWIGEIFPRSGNTYYNEKFEGRATLTADKSTSTAYMELRSLRSEDTAVYYCAKGDLGDFDYWGQGTTVTVSS
VL: DFVMTQTPLSLPVTPGEPASISCRSSQSIVHSDGNTYFEWYLQKPGQSPKLLIYKVSNRFSGVPDRFSGSGSGTDFTLKISRVEAEDVGVYYCFQGSHVPWTFGGGTKVEIKR
The term Kd denotes the concentration at which binding is half-saturated. Low values mean a tighter complex, high ones a looser complex. B4 came in with a Kd in experiment [5] of 0.43 nM.

B5: humanized antibody hAb017 (antibody, human IgG1, kappa, V domains shown)
VH: EVQLVQSGAEVKKPGASVKVSCKASGYTFTTYGINWVKQAPGQGLEWIGEIYPRSGNIYYNEKFKGKATLTADKSTSTAYMELRSLRSDDTAVYYCARGSDYDGDFAYWGQGTLVTVSS
VL: B4 VL with F2V, S32H, F38L, K50Q
B5 yielded a Kd in experiment [5] of 3.77 nM.

B6: SN8 (antibody, V domains shown)
VH: EVQLVESGGGLVQPGGSLRLSCAASGYTFSSYWIEWVRQAPGKGLEWIGEILPGGGDTNYNEIFKGRATFSADTSKNTAYLQMNSLRAEDTAVYYCTRRVPIRLDYWGQGTLVTVSS
VL: DIQLTQSPSSLSASVGDRVTITCKASQSVDYEGDSFLNWYQQKPGKAPKLLIYAASNLESGVPSRFSGSGSGTDFTLTISSLQPEDFATYYCQQSNEDPLTFGQGTKVEIKR
For B6, in experiment [6], the “EC50 (read off the curve)” value was approximately 0.09 µg/mL.
